Kd data for three molecules are collected here from patent publication US20090215197A1, “TARGET SUBSTANCE CAPTURING MOLECULE” (CANON KABUSHIKI KAISHA, published 2009).

As usually defined, the Kd is the concentration at which binding is half-saturated.

In assay [1] the target is T1, Maltose-binding protein (MBP) (Escherichia coli (strain K12), UniProt P0AEX9 = MBP). Put plainly: SPR (BIAcore), MBP immobilized on CM5 chip, 0.1% Tween 20/PBS, 25 C.
In assay [2] the target is T1, Maltose-binding protein (MBP). Put plainly: SPR (BIAcore), same manner as in Example 10 (MBP immobilized on CM5 chip). Here is the method: In comparison with the single stranded MBP-bound VHH/MBP-bound ankyrine fused protein obtained in Example 4, and the MBP-bound VHH-Jun/MBP-bound ankyrine Fos hetero dimer obtained in Example 9, the MBP bound antibody domain (VHH), which is a single domain protein bound to MBP and represented by Sequence ID No. 2 and the MBP-bound ankyrine represented by Sequence ID No. 6 were evaluated by SPR (manufactured by BIAcore). As a substrate, CM5 (manufactured by BIAcore) is used. MBP is immobilized onto the substrate in accordance with the method recommended by the manufacturer. The MBP immobilized chip thus obtained is subjected to evaluation under the conditions: running Buffer: 0.1% Tween 20/PBS, flow rate: 20 μL/min, and temperature: 25° C. […] The capturing molecule according to the present invention has a high binding ability, compared to the capturing molecule known in the art binding to a target substance at a single epitope (or single site).
MBP-bound VHH-Jun fusion protein and MBP-bound peptide-Fos fusion protein hetero dimer obtained in Example 14 was evaluated for SPR (manufactured by BIAcore) in the same manner as in Example 10.
(In general: Surface plasmon resonance follows binding to a sensor surface in real time, without labels.)

B1: MBP bound antibody domain (VHH) (VHH)
VHH: QVQLQESGPGLLKPSETLFLTCTVSGFSISGGYYWGWFRQPPGKEREWIGSVYHSGSTYYNKSLESRVTISIHTSESQISLKLNSVTAADTAVYSCARYRTAHPLWGQGTMVTVSS
Consider B1, for which, in assay [1], the Kd came to 1 µM.

B2: MBP-bound VHH-Jun/MBP-bound ankyrine Fos hetero dimer (other)
chain 1: PWQVQLQESGPGLLKPSETLFLTCTVSGFSISGGYYWGWFRQPPGKEREWIGSVYHSGSTYYNKSLESRVTISIHTSESQISLKLNSVTAADTAVYSCARYRTAHPLWGQGTMVTVSSEFGGGGSGGGGSGGGGSRIARLEEKVKTLKAQNSELASTANMLREQVAQLKQKVMNYFGC
chain 2: PWNAADNTGTTPLHLAAYSGHLEIVEVLLKHGADVDASDVFGYTPLHLAAYWGHLEIVEVLLKNGADVNAMDSDGMTPLHLAAKWGYLEIVEVLLKHGADVNAQDKFGKTAFDISIDNGNEDLAEILQEFGGGGSGGGGSGGGGSLTDTLQAETDQLEDKKSALQC
As for B2, the Kd in assay [1] was determined as 0.001 µM.

B3: MBP-bound VHH-Jun fusion protein and MBP-bound peptide-Fos fusion protein hetero dimer (other)
chain 1: PWQVQLQESGPGLLKPSETLFLTCTVSGFSISGGYYWGWFRQPPGKEREWIGSVYHSGSTYYNKSLESRVTISIHTSESQISLKLNSVTAADTAVYSCARYRTAHPLWGQGTMVTVSSEFGGGGSGGGGSGGGGSRIARLEEKVKTLKAQNSELASTANMLREQVAQLKQKVMNYFGC
chain 2: TPIHRRRQFNTGEFGGGGSGGGGSGGGGSLTDTLQAETDQLEDKKSALQTEIANLLKEKEKLEFILAAYRLC
For the molecule B3, the Kd in assay [2] came out at 0.01 µM.
